Laboratory results reported in US20230257470A1 (published 2023).
Positions count from the first letter of the chain named. Names may count otherwise.

Columns and labels:
[1] = target: T1, human FcγRIIa(H) (allotype H131) (human, UniProt P12318 36-217); test: SPR (Biacore T100), ratio of the KD values of Table 24
T1 construct: Soluble analyte in SPR; also called hFcgRIIa(H); FcgRIIaH
T1 sequence: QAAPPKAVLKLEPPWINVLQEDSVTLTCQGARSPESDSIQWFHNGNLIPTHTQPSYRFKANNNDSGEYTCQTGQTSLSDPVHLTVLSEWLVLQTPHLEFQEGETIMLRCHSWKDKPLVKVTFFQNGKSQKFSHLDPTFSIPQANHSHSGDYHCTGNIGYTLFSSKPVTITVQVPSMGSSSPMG

[2] = target: T2, human FcγRIIa(R) (allotype R131) (human, UniProt P12318 36-217); test: as above
T2 construct: Soluble analyte in SPR; also called hFcgRIIa(R); FcgRIIaR
T2 chain: T1 sequence with H133R

[3] = target: T3, human FcγRIa (human, UniProt P12314 16-292, limits assumed); test: as above
T3 construct: Soluble analyte in SPR; also called hFcgRIa; FcgRIa

[4] = target: T4, human FcγRIIb (human, UniProt P31994 43-217, limits assumed); test: as above
T4 construct: Soluble analyte in SPR; also called hFcgRIIb; FcgRIIb
T4 sequence: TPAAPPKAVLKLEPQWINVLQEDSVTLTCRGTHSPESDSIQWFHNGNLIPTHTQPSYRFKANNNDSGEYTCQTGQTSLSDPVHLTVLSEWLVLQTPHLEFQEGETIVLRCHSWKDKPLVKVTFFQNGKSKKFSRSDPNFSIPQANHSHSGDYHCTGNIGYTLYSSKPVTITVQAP

[5] = target: T5, human FcγRIIa type R (human, UniProt P12318 36-217); test: SPR (Biacore), antibody captured on Protein A chip, FcγR as analyte, 25 C, method of Example 14
T5 construct: also called FcγRIIaR; FcγRIIa(R)
T5 chain: T1 sequence with H133R

[6] = target: T6, human FcγRIIb (human, UniProt P31994 43-217, limits assumed); test: ratio of SPR KD values: KD for FcγRIIaR divided by KD for FcγRIIb
T6 construct: Whole entry (AAI46679.1); also called FcγIIB; FcgRIIb
T6 sequence: T4 sequence

[7] = target: T6, human FcγRIIb; test: SPR (Biacore), antibody captured on Protein A chip, FcγR as analyte, 25 C, method of Example 14
[8] = target: T7, human FcγRIIIa(F) (human, UniProt P08637 17-208, limits assumed); test: SPR, antibody captured, FcγR as analyte, capture-corrected binding amount
T7 construct: the assay used allotype F; also called FcgRIIIaF; FcγRIIIa allotype F158

[9] = target: T8, human FcγRIIb (human, UniProt P31994 43-217, limits assumed); test: SPR, captured antibody, FcγR as analyte
T8 construct: Soluble analyte in SPR; also called FcgRIIb; FcγIIB
T8 sequence: T4 sequence

[10] = target: T9, mouse FcγRI (mouse, UniProt P26151 25-297); test: SPR, antibody captured by Protein L, mouse FcγR injected, pH 7.4
T9 construct: Bought protein; construct not described; also called mFcgRI
T9 sequence (looked up): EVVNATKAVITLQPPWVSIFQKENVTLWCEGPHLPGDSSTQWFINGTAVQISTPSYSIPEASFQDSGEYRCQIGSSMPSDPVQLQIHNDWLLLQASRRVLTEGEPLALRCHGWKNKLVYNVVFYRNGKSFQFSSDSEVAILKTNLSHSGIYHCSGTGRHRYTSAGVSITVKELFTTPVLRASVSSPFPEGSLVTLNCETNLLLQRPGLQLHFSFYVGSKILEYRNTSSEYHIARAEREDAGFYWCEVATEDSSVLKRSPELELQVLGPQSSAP

[11] = target: T10, mouse FcγRIIb (mouse, UniProt P08101 40-217, limits assumed); test: as above
T10 construct: Bought protein; construct not described; also called mFcgRIIb
T10 sequence (looked up): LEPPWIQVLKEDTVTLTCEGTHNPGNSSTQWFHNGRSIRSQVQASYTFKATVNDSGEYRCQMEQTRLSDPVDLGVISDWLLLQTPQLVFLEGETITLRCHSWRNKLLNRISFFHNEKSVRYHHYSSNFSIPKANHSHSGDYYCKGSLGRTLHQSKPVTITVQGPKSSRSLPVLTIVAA

[12] = target: T11, mouse FcγRIII (mouse, UniProt P08508 31-215); test: as above
T11 construct: Bought protein; construct not described; also called mFcgRIII
T11 sequence (looked up): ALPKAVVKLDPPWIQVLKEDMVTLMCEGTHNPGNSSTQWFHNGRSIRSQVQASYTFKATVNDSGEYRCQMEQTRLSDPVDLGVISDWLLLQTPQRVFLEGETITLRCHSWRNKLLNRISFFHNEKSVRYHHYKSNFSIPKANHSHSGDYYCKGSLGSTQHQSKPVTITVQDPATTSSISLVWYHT

T3 sequence (P12314 16-292 limits assumed): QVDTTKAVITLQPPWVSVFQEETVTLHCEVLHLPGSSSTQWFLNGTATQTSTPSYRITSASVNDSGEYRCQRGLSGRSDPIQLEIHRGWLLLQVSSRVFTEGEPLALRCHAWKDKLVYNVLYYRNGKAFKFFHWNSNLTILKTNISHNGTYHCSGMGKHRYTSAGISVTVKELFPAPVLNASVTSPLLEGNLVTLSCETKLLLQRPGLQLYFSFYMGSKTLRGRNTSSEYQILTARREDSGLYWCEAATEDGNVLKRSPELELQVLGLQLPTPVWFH
T7 sequence (P08637 other isoform, or with tags, fused parts or gaps limits assumed): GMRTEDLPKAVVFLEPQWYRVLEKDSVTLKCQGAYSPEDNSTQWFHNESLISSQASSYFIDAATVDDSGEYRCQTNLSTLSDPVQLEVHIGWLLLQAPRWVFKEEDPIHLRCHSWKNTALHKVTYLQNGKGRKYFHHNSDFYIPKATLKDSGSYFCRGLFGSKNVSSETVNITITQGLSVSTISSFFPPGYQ

B1: IgG1-v1 (antibody containing IL6R-G1d_v1 as H chain and IL6R-L as L chain) (antibody)
heavy: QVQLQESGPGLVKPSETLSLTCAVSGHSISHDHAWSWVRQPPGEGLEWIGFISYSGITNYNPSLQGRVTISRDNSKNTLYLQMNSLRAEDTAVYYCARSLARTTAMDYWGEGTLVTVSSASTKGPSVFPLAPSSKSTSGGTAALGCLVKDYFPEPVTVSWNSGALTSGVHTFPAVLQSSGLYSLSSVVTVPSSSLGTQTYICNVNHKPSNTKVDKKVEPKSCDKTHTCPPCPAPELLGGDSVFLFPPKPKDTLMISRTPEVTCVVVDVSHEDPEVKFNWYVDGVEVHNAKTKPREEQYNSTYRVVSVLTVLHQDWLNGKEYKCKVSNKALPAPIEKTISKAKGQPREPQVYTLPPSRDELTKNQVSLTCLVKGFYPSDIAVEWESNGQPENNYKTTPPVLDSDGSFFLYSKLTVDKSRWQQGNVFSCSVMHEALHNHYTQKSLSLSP
light: DIQMTQSPSSLSASVGDRVTITCRASQDISSYLNWYQQKPGKAPKLLIYYTSRLHSGVPSRFSGSGSGTDFTFTISSLQPEDIATYYCQQGNTLPYTFGQGTKVEIK
notes: IL6R-G1d with P238D (EU numbering); also called P238D
With B1 the “relative KD (KD of IgG1 / KD of the variant)” value [1] was 0.014 fold, the “relative KD (KD of IgG1 / KD of the variant)” value [2] was 0.1 fold and the “relative KD (KD of IgG1 / KD of the variant)” value [3] was 0.047 fold. For the same binder, the “relative KD (KD of IgG1 / KD of the variant)” value [4] was 4.8 fold.

B2: IL6R-B3/IL6R-L (antibody, human IgG1)
heavy: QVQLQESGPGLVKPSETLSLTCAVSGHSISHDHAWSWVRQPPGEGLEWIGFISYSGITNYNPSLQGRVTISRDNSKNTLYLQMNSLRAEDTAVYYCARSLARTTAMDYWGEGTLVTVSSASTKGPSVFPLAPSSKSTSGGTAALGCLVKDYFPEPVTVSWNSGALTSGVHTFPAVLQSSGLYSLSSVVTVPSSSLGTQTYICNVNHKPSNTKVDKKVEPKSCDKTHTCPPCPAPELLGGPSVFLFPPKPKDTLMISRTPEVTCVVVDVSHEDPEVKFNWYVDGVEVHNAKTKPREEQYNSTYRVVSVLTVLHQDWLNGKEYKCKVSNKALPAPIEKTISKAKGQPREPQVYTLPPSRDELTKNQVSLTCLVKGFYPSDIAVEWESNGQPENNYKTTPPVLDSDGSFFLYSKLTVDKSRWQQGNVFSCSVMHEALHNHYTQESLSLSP
light: B1 light
notes: IL6R-G1d with K439E (EU numbering); also called parent polypeptide
With B2 the Kd [5] was 11 µM.

B3: IgG1-v3 (antibody containing IL6R-G1d_v3 as H chain and IL6R-L as L chain) (antibody)
heavy: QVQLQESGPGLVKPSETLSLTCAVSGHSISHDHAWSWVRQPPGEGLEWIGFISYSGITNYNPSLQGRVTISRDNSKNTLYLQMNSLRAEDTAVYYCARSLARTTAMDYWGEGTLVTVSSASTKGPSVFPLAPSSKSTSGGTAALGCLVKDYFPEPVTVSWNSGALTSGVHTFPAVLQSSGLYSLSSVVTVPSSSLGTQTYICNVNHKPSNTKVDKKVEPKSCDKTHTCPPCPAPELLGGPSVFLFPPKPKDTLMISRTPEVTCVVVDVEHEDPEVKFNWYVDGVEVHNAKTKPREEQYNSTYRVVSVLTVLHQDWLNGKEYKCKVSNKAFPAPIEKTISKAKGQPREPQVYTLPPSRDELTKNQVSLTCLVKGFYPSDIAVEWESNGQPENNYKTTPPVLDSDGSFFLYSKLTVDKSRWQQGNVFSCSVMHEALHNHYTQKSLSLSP
light: B1 light
notes: IL6R-G1d with S267E/L328F (EU numbering); also called S267E/L328F
B3 was tested, and the “relative KD (KD of IgG1 / KD of the variant)” value [1] was 0.51 fold, the “relative KD (KD of IgG1 / KD of the variant)” value [2] was 522 fold and the “relative KD (KD of IgG1 / KD of the variant)” value [3] was 1.8 fold. The “relative KD (KD of IgG1 / KD of the variant)” value [4] was 408 fold.

B4: IL6R-BP179/IL6R-L (antibody, human IgG1, name in EU numbering)
heavy: QVQLQESGPGLVKPSETLSLTCAVSGHSISHDHAWSWVRQPPGEGLEWIGFISYSGITNYNPSLQGRVTISRDNSKNTLYLQMNSLRAEDTAVYYCARSLARTTAMDYWGEGTLVTVSSASTKGPSVFPLAPSSKSTSGGTAALGCLVKDYFPEPVTVSWNSGALTSGVHTFPAVLQSSGLYSLSSVVTVPSSSLGTQTYICNVNHKPSNTKVDKKVEPKSCDKTHTCPPCPAPELLGDDSVFLFPPKPKDTLMISRTPEVTCVVVDVSHEDGEVKFNWYVDGVEVHNAKTKPREEQYNSTYRVVSVLTVLHQDWLNGKEYKCKVSNAALPKPIEKTISKAKGQPREPQVYTLPPSRDELTKNQVSLTCLVKGFYPSDIAVEWESNGQPENNYKTTPPVLDSDGSFFLYSKLTVDKSRWQQGNVFSCSVMHEALHNHYTQESLSLSP
light: B1 light
notes: Alterations introduced into IL6R-B3 (EU numbering)
With B4 the “KD(IIaR)/KD(IIb)” value [6] was 15.7.

B5: IL6R-BF648/IL6R-L (antibody, human IgG1, name in EU numbering)
heavy: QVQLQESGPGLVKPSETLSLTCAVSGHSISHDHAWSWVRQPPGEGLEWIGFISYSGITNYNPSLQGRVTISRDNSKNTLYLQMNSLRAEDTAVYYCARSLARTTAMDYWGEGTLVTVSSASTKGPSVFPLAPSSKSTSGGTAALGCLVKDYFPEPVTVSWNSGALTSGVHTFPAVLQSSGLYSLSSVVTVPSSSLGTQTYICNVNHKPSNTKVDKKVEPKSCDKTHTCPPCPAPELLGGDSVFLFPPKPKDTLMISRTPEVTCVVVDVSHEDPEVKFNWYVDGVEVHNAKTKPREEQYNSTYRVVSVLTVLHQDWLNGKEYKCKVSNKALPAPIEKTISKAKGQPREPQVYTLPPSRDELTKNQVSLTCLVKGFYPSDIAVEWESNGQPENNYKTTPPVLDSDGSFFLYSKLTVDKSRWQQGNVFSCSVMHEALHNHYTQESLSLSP
light: B1 light
notes: Alteration introduced into IL6R-B3; positions in EU numbering
B5 showed a Kd [7] of 12 µM.

B6: IL6R-2B261/IL6R-L (antibody, human IgG1, name in EU numbering)
heavy: B4 heavy with E235D, D239G, G273P, Y298D, A328K, K332A
light: B1 light
notes: as for B4
Binder B6 has a Kd [7] of 10 µM.

B7: IL6R-BP180/IL6R-L (antibody, human IgG1, name in EU numbering)
heavy: B4 heavy with A328K
light: B1 light
notes: as for B4
B7 was tested, and the “KD(IIaR)/KD(IIb)” value [6] was 18.5.

B8: IL6R-G1d/IL6R-L (antibody, human IgG1)
heavy: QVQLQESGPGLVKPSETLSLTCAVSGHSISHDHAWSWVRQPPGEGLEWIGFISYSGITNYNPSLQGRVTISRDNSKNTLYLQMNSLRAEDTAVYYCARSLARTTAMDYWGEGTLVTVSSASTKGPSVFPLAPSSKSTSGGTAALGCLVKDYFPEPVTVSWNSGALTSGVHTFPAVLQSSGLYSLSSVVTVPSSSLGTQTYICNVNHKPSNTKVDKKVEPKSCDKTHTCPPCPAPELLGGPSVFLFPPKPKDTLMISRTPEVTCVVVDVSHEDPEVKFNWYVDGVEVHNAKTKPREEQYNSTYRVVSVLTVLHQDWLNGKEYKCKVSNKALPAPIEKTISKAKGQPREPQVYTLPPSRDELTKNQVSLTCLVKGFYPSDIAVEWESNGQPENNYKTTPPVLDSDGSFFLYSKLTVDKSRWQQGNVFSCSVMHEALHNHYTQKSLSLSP
light: B1 light
notes: Anti-human IL-6 receptor IgG1, G1d constant region; also called IgG1
B8 showed a Kd [7] of 26 µM and a Kd [5] of 10 µM.

B9: IL6R-BP146/IL6R-L (antibody, human IgG1, name in EU numbering)
heavy: B4 heavy with L236Y, G273P, K332A
light: B1 light
notes: as for B4
B9 was tested, and the Kd [5] was 21 µM.

B10: IgG1-v2 (antibody containing IL6R-G1d_v2 as H chain and IL6R-L as L chain) (antibody)
heavy: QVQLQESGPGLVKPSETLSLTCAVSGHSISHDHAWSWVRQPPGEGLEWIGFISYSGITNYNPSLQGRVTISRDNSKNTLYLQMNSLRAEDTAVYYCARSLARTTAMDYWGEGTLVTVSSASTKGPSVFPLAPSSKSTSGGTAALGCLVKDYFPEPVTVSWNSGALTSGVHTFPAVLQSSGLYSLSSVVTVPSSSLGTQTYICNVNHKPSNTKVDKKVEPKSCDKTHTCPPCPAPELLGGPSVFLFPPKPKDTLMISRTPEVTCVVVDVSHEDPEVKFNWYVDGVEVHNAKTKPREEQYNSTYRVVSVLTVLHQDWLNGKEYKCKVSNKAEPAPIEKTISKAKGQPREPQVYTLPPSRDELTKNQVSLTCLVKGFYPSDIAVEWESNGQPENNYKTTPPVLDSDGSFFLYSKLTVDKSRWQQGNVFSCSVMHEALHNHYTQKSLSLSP
light: B1 light
notes: IL6R-G1d with L328E (EU numbering); also called L328E
With B10 the “relative KD (KD of IgG1 / KD of the variant)” value [1] was 0.064 fold, the “relative KD (KD of IgG1 / KD of the variant)” value [2] was 0.41 fold and the “relative KD (KD of IgG1 / KD of the variant)” value [3] was 0.74 fold. The “relative KD (KD of IgG1 / KD of the variant)” value [4] was 2.3 fold.

B11: GpH7-B3 N325F/GpL16-k0 (antibody, human IgG1)
heavy: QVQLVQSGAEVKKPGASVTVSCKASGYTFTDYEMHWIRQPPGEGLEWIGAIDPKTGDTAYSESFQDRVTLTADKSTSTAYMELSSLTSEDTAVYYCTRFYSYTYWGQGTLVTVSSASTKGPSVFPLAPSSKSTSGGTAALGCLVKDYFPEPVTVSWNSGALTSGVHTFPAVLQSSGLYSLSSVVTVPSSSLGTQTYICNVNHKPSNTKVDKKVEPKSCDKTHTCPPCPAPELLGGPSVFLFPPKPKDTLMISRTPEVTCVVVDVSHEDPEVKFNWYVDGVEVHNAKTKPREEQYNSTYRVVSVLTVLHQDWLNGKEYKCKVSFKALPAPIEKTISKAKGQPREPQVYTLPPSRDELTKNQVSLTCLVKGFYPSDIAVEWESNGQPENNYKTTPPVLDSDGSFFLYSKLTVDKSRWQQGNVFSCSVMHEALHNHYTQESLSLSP
light: DIVMTQSPLSLPVTPGEPASISCQASESLVHSNRNTYLHWYLQKPGQSPQLLIYKVSNRFSGVPDRFSGSGSGTDFTLKISRVEAEDVGVYYCSQNTHVPPTFGQGTKVEIE
notes: Anti-glypican-3 human IgG1 with B3 constant region (G1d with K439E); also called B3 variant; copies: 2 + 2
For B11, the relative binding activity [8] was 1 % of GpH7-B3/GpL16-k0.

B12: GpH7-B3 variant G237R/GpL16-k0 (antibody, human IgG1)
heavy: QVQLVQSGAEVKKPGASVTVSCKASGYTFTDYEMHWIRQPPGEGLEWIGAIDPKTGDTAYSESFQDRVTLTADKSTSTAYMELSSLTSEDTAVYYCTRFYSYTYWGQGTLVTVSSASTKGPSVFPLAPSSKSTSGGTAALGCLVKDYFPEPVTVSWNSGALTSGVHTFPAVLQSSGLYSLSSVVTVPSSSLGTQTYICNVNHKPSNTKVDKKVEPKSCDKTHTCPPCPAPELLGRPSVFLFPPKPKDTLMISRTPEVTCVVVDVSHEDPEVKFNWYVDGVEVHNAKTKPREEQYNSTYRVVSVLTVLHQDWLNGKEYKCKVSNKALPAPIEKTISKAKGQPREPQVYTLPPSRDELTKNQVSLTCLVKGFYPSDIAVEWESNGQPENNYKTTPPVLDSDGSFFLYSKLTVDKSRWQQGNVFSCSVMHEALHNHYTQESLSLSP
light: B11 light
notes: copies: 2 + 2
B12 was tested, and the relative binding activity [9] was 1 % of GpH7-B3/GpL16-k0.

B13: GpH7-B3 variant D265M/GpL16-k0 (antibody, human IgG1)
heavy: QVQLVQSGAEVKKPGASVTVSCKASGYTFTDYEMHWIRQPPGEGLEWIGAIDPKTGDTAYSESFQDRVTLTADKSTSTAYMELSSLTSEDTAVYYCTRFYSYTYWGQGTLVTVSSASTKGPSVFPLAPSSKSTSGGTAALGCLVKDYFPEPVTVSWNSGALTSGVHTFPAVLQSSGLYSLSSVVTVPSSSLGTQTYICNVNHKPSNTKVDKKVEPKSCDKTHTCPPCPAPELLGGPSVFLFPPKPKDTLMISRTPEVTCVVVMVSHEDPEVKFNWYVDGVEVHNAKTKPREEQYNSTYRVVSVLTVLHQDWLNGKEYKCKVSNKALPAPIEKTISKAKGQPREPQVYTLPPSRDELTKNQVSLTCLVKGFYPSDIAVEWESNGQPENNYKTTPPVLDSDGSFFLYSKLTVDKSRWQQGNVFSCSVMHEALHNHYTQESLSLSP
light: B11 light
notes: copies: 2 + 2
In the case of B13, the relative binding activity [9] is reported as 2 % of GpH7-B3/GpL16-k0.

B14: GpH7-B3 Y300R/GpL16-k0 (antibody, human IgG1)
heavy: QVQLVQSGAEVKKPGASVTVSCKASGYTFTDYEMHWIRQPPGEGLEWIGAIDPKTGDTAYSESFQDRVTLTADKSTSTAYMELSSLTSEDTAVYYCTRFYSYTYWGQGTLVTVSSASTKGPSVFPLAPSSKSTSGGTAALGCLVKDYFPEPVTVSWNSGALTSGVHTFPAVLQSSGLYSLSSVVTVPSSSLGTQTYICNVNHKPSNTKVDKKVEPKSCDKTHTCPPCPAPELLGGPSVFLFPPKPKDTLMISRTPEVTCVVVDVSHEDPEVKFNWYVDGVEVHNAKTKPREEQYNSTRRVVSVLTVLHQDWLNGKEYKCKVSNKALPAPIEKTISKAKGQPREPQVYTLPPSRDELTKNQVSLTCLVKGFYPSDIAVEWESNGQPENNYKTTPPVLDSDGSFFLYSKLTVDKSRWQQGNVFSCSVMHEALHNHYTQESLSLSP
light: B11 light
notes: as for B11
With B14 the relative binding activity [8] was 12 % of GpH7-B3/GpL16-k0.

B15: VH3/L(WT)-IgG1-F821 (antibody)
heavy: B4 heavy with L237R, D239G, D240P, S241K, M254Y, G273P, A328K, K332A, N436Y, E441K
light: not shown
notes: L235R/S239K variant of VH3-IgG1-F11 with L(WT)-CK; also called VH3-IgG1-F821; copies: 2 + 2
B15: no binding [10]; no binding [11]; no binding [12].

B16: VH3/L(WT)-IgG1-F1009 (antibody)
heavy: QVQLQESGPGLVKPSETLSLTCAVSGHSISHDHAWSWVRQPPGEGLEWIGFISYSGITNYNPSLQGRVTISRDNSKNTLYLQMNSLRAEDTAVYYCARSLARTTAMDYWGEGTLVTVSSASTKGPSVFPLAPSSKSTSGGTAALGCLVKDYFPEPVTVSWNSGALTSGVHTFPAVLQSSGLYSLSSVVTVPSSSLGTQTYICNVNHKPSNTKVDKKVEPKSCDKTHTCPPCPAPELRGGPKVFLFPPKPKDVLYISRTPEVTCVVVDVSHEDPEVKFNWYVDGVEVHNAKTKPREEQYNSTYRVVSVLQPLHADWLNGKEYKCKVSNKALPAPIEKTISKAKGQPREPQVYTLPPSRDELTKNQVSLTCLVKGFYPSDIAVEWESNGQPENNYKTTPPVLDSDGSFFLYSKLTVDKSRWQQGNVFSCSVMHEALHYHVTQKSLSLSP
light: not shown
notes: L235R/S239K variant of VH3-IgG1-F947 with L(WT)-CK; also called VH3-IgG1-F1009; copies: 2 + 2
B16: no binding [10]; no binding [11]; no binding [12].

B17: VH3/L(WT)-IgG1-F939 (antibody)
heavy: B16 heavy with V252T, Q309T, P310V, A313Q
light: not shown
notes: L235R/S239K variant of VH3-IgG1-F890 with L(WT)-CK; also called VH3-IgG1-F939; copies: 2 + 2
B17: no binding [10]; no binding [11]; no binding [12].
